Data reported in patent US20260137759A1.

Assays:
TGFβ1 (R&D systems) = TGFβ1 (R&D systems) (UniProt P01137); assay: cell-based or functional assay
[1] = target: IL2Rβ and common γ chain (on 32Dβ cells); assay: cell-based or functional assay

Chain of UniProt P01137 (P01137 279-390 limits assumed): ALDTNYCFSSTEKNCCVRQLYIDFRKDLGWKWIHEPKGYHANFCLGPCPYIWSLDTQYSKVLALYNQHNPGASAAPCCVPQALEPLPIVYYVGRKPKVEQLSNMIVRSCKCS

IC50, inhibition of TGFβ1 activity in HEK-Blue TGFβ cells (QUANTI-Blue OD 620-655 nM) (TGFβ1 (R&D systems)) [nM] | EC50, 32Dβ cell proliferation (WST1, absorbance 450 nM) [1] [nM] | Substance
0.461 | – | TGFR-Fc (R&D Systems) (from UniProt P37173 24-159) (Fc fusion)
– | 0.0106 | recombinant IL-15 (from UniProt P40933 49-162) (ligand)
